Experimental data: paper PMC12484979 (Nature Communications, 2025)

Key:
Assay in all cases: cryo-EM structure
CD20 = CD20 (UniProt P11836)
[1] = molecular target: human β-tryptase, tetrameric (activated by enterokinase cleavage) (human) (UniProt Q15661)
cryo-EM structure = molecular target: the molecule itself

Rituximab Fab, wild type (human-mouse chimeric)
stoichiometry N (Fab per CD20 dimer) (CD20): 2

human β-tryptase, tetrameric (activated by enterokinase cleavage) (from UniProt Q15661 31-275) (enzyme)
stoichiometry N [1]: 4

B1: CD20 (natural protein)
chain: TQSFFMRESKTLGAVQIMNGLFHIALGGLLMIPAGIYAPICVTVWYPLWGGIMYIISGSLLAATEKNSRKCLVKGKMIMNSLSLFAAISGMILSIMDILNIKISHFLKMESLNFIRAHTPYINIYNCEPANPSEKNSPSTQYCYSIQSLFLGILSVMLIFAFFQELVIAGIVENEWKRTCSRPKSNIVLLSAEEKKEQTIEIKEEVVGLTETSSQPKNEEDIEIIPIQEEEEEETETNFPEPPQDQESSPIENDSSP
stoichiometry N (cryo-EM structure): 2
